According to paper PMC2835468 (Matrix biology : journal of the International Society for …, 2009):
Read-outs that look alike come from different tables or passages of the source.

Experiments:
Experiment in all cases: enzyme inhibition kinetics
[1] = biological target: T1, ADAMTS5-5 (human ADAMTS-5, catalytic and disintegrin domain, C-terminal FLAG-tag) (human, UniProt Q9UNA0 262-566)
T1 sequence (looked up): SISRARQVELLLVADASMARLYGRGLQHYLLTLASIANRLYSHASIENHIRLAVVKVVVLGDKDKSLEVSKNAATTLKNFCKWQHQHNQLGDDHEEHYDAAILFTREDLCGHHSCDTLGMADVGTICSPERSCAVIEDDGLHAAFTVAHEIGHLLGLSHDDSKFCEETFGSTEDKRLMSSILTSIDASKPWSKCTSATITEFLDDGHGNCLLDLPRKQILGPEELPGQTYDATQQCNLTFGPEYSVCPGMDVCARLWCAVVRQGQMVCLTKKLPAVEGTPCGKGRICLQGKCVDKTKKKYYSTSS

[2] = biological target: T2, ADAMTS5-1 (full-length human ADAMTS-5, C-terminal FLAG-tag) (human, UniProt Q9UNA0 262-930)
T2 sequence (looked up): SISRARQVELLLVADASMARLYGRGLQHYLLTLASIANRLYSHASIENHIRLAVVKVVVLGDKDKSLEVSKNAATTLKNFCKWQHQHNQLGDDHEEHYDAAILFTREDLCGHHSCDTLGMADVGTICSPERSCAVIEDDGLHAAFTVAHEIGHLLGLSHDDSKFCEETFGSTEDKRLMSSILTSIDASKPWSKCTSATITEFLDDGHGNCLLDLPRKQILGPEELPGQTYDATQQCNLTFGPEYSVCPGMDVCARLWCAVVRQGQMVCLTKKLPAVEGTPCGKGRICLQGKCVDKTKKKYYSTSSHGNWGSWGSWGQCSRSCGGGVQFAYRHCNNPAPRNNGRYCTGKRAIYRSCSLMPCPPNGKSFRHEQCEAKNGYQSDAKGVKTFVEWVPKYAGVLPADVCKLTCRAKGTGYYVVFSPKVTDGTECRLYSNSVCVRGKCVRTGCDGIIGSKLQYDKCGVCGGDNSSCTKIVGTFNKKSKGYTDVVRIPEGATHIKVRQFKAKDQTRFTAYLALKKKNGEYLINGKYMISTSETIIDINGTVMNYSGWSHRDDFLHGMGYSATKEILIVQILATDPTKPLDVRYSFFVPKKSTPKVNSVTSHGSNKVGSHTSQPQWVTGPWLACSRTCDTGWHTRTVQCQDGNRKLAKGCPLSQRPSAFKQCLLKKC

[3] = biological target: T3, ADAMTS5-4 (human ADAMTS-5 deletion mutant, C-terminal FLAG-tag) (human, UniProt Q9UNA0 262-622)
T3 sequence (looked up): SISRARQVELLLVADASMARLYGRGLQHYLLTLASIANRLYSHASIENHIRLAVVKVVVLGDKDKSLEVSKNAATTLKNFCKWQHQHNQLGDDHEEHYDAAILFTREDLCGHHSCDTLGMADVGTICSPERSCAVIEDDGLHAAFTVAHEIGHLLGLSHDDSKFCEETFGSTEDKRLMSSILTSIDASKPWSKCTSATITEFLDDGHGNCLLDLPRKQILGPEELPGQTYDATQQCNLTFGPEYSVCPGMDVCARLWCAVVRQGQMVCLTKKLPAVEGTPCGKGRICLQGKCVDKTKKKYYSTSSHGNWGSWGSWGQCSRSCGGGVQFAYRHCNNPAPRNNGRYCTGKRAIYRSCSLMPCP

[4] = biological target: T1, ADAMTS5-5 (human ADAMTS-5, catalytic …); remark: listed apart in the source
[5] = biological target: T2, ADAMTS5-1 (full-length human ADAMTS-5, …); remark: listed apart in the source

Ki [1]: 1.89 nM
Ki [2]: 0.7 nM
Ki [3]: 1.13 nM
Ki [4]: 1.17 nM
Ki [5]: 0.63 nM
B1: FLAG-tagged glycosylated human TIMP-3 (full-length tissue inhibitor of metalloproteinases 3), expressed in HEK293 (natural protein, UniProt P35625 24-211, looked up)
chain: CTCSPSHPQDAFCNSDIVIRAKVVGKKLVKEGPFGTLVYTIKQMKMYRGFTKMPHVQYIHTEASESLCGLKLEVNKYQYLLTGRVYDGKMYTGLCNFVERWDQLTLSQRKGLNYRYHLGCNCKIKSCYYLPCFVTSKNECLWTDMLSNFGYPGYQSKHYACIRQKGGYCSWYRGWAPPDKSIINATDP
modifications: glycosylated (only the 27 kDa glycosylated form remained after purification; single N-glycosylation site in the C-terminal domain)
